Paper PMC6973309

Molecular target: human CX3CR1 (human) (UniProt P49238)
Sequence (P49238 whole entry): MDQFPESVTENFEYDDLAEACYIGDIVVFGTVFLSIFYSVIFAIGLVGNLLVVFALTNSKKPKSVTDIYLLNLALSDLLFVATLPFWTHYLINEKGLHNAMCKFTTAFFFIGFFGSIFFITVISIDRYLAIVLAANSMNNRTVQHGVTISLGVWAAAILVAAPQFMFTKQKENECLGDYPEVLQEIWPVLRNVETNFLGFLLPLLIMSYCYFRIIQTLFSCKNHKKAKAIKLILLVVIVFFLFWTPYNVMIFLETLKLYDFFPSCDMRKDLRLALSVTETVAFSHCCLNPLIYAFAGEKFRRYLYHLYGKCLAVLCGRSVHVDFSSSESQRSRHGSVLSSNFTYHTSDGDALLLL

EC50 in the calcium flux assay: 4.8 nM
B1: mouse fractalkine (ligand)
chain: QHLGMTKCEIMCDKMTSRIPVALLIRYQLNQESCGKRAIVLETTQHRRFCADPKEKWVQDAMKHLDHQAAALTKNGGKFEKRVDNVTPGITLATRGLSPSALTKPESATLEDLALELTTISQEARGTMGTSQEPPAAVTGSSLSTSEAQDAGLTAKPQSIGSFEAADISTTVWPSPAVYQSGSSSWAEEKATESPSTTAPSPQVSTTSPSTPEENVGSEGQPPWVQGQDLSPEKSLGSEEINPVHTDNFQERGPGNTVHPSVAPISSEETPSPELVASGSQAPKIEEPIHATADPQKLSVLITPVPDTQAATRRQAVGLLAFLGLLFCLGVAMFAYQSLQGCPRKMAGEMVEGLRYVPRSCGSNSYVLVPV
